The values below are quoted from earlier work in article PMC4125106.

In this data set the target is insulin receptor (Drosophila melanogaster) (UniProt P09208). Nature of the data set: competitive binding.
Chain of UniProt P09208 (P09208 44-1310): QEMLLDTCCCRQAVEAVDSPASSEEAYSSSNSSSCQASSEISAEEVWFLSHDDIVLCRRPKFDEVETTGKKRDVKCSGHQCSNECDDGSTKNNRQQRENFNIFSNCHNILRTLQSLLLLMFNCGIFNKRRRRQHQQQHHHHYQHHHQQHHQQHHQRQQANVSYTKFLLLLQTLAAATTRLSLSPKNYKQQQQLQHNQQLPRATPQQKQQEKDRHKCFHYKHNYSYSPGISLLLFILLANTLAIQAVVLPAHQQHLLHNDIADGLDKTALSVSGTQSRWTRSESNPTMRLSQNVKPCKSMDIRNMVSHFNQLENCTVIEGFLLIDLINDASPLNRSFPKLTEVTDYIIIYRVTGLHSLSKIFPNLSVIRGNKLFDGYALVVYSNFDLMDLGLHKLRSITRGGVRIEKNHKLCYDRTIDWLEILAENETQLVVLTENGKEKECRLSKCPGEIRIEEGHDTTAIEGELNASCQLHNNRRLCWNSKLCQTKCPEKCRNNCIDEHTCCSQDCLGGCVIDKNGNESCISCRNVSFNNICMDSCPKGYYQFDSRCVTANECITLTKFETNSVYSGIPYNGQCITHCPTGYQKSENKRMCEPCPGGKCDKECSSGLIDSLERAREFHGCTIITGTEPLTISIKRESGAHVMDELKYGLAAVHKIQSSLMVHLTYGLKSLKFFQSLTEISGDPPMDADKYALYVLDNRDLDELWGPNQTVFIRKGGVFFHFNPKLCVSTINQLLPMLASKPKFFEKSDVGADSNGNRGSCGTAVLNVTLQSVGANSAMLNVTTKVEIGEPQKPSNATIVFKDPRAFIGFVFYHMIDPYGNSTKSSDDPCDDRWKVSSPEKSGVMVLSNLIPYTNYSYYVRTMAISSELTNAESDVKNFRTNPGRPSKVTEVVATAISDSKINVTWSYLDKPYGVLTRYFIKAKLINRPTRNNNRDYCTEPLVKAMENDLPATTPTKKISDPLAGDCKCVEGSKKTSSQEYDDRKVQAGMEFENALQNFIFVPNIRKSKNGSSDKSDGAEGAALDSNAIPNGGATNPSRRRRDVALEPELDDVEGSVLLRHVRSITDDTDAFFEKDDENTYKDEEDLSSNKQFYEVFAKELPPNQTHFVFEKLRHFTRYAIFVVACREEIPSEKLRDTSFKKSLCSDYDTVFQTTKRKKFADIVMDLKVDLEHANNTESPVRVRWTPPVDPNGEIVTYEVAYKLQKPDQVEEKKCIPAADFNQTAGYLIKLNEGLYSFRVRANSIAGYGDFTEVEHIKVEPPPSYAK

Take Ilp5 (from UniProt Q7KUD5): the Kd was 555 pM.

As a reminder, the Kd is the constant that tells how readily two partners part at equilibrium.
